Test results: patent US20030049605A1 (published 2003)

B1: gpIII/env1 phage (ecotropic Moloney MuLV envelope residues 34-468 displayed as a fusion with M13 gpIII) (other)
chain: ASPGSSPHQVYNITWEVTNGDRETVWATSGNHPLWTWWPDLTPDLCMLAHHGPSYWGLEYQSPFSSPPGPPCCSGGSSPGCSRDCEEPLTSLTPRCNTAWNRLKLDQTTHKSNEGFYVCPGPHRPRESKSCGGPDSFYCAYWGCETTGRAYWKPSSSWDFITVNNNLTSDQAVQVCKDNKWCNPLVIRFTDAGRRVTSWTTGHYWGLRLYVSGQDPGLTFGIRLRYQNLGPRVPIGPNPVLADQQPLSKPKPVKSPSVTKPPSGTPLSPTQLPPAGTENRLLNLVDGAYQALNLTSPDKTQECWLCLVAGPPYYEGVAVLGTYSNHTSAPANCSVASQHKLTLSEVTGQGLCIGAVPKTHQALCNTTQTSSRGSYYLVAPTGTMWACSTGLTPCISTTILNLTTDYCVLVELWPRVTYHSPSYVYGLFERSNRHKTSGGGGSPFVCEYQGQSSDLPQPPVNAGGGSGGGSGGGSEGGGSEGGGSEGGGSEGGGSGGGSGSGDFDYEKMANANKGAMTENADENALQSDAKGKLDSVATDYGAAIDGFIGDVSGLANGNGATGDFAGSNSQMAQVGDGDNSPLMNNFRQYLPSLPQSVECRPFVFSAGKPYEFSIDCDKINLFRGVFAFLLYVATFMYVFSTFANILRNKES
notes: Tested as whole phage particles displaying the fusion; also called construct 1
B2: gpIII/env3 phage (ecotropic Moloney MuLV envelope residues 34-266 displayed as a fusion with M13 gpIII) (other)
chain: ASPGSSPHQVYNITWEVTNGDRETVWATSGNHPLWTWWPDLTPDLCMLAHHGPSYWGLEYQSPFSSPPGPPCCSGGSSPGCSRDCEEPLTSLTPRCNTAWNRLKLDQTTHKSNEGFYVCPGPHRPRESKSCGGPDSFYCAYWGCETTGRAYWKPSSSWDFITVNNNLTSDQAVQVCKDNKWCNPLVIRFTDAGRRVTSWTTGHYWGLRLYVSGQDPGLTFGIRLRYQNLGPRVTSGGGGS
notes: range 34-266; Tested as whole phage particles. pelB leader left out; also called construct 3
B3: gpIII/env2 phage (ecotropic Moloney MuLV envelope residues 34-308 displayed as a fusion with M13 gpIII) (other)
chain: ASPGSSPHQVYNITWEVTNGDRETVWATSGNHPLWTWWPDLTPDLCMLAHHGPSYWGLEYQSPFSSPPGPPCCSGGSSPGCSRDCEEPLTSLTPRCNTAWNRLKLDQTTHKSNEGFYVCPGPHRPRESKSCGGPDSFYCAYWGCETTGRAYWKPSSSWDFITVNNNLTSDQAVQVCKDNKWCNPLVIRFTDAGRRVTSWTTGHYWGLRLYVSGQDPGLTFGIRLRYQNLGPRVPIGPNPVLADQQPLSKPKPVKSPSVTKPPSGTPLSPTQLPPATSGGGGS
notes: range 34-308; Tested as whole phage particles. pelB leader left out; also called construct 2

Each binder was assayed against T1, mCAT1, ecotropic retroviral receptor (cationic amino acid transporter), expressed on human 911 cells … (mouse, UniProt Q09143 1-622) (assay: phage binding to cells, elution with triethylamine, titering (cfu)).
T1 construct: whole, on cells; also called mATRC1; 911-mCAT1-3H7
T1 sequence (Q09143 whole entry): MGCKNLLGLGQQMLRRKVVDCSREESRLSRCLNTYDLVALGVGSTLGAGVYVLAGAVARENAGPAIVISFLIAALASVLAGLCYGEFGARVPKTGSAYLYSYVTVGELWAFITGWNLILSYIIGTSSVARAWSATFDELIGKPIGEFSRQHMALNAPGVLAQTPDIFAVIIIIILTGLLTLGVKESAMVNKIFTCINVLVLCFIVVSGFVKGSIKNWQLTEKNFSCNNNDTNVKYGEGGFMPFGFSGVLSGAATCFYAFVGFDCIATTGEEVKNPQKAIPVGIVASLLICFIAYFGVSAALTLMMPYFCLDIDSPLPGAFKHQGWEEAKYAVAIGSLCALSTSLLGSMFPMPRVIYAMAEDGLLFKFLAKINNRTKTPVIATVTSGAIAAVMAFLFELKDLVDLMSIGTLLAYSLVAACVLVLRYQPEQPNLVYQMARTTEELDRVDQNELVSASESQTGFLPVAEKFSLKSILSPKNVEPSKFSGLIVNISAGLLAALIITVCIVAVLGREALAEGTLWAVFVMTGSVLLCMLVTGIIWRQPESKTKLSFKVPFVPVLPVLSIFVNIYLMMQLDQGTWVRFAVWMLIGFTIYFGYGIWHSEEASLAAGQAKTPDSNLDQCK

Binder	times more eluted phage from 911-mCAT1 cell line as compared to 911-pcDNA3 cell line
B1	11 times
B2	26 times
B3	97 times
